Results from paper PMC3124622.

Test system: Nc1nc2nc[nH]c2c(=O)[nH]1
Assay: purified protein, by the assay type
Settings: guanine as substrate, 20 μM tRNA, 37 °C, pH 7.3

E. coli TGT C145V/T146V (Escherichia coli K-12; C145V/T146V)
Km (other: C145V/T146V): 0.87 (0.18) μM | kcat (other: C145V/T146V): 0.00053 s⁻¹

E. coli TGT V217G (Escherichia coli K-12; V217G)
Km (other: V217G): 1.00 (0.10) μM | kcat (other: V217G): 0.000259 s⁻¹
